US9994881B2, “Functionalized carboxylic acids and alcohols by reverse fatty acid oxidation in engineered microbes” (William Marsh Rice University, priority 2011, dated 2018)
Marks after values point to notes of the source that are not given here.

B1: FadA: E. coli 3-ketoacyl-CoA thiolase (thiolase I), a component of fatty acid oxidation complex FadAB (protein, UniProt P21151 1-387, looked up)
3-ketoacyl-CoA thiolase FadA: MEQVVIVDAIRTPMGRSKGGAFRNVRAEDLSAHLMRSLLARNPALEAAALDDIYWGCVQQTLEQGFNIARNAALLAEVPHSVPAVTVNRLCGSSMQALHDAARMIMTGDAQACLVGGVEHMGHVPMSHGVDFHPGLSRNVAKAAGMMGLTAEMLARMHGISREMQDAFAARSHARAWAATQSAAFKNEIIPTGGHDADGVLKQFNYDEVIRPETTVEALATLRPAFDPVNGMVTAGTSSALSDGAAAMLVMSESRAHELGLKPRARVRSMAVVGCDPSIMGYGPVPASKLALKKAGLSASDIGVFEMNEAFAAQILPCIKDLGLIEQIDEKINLNGGAIALGHPLGCSGARISTTLLNLMERKDVQFGLATMCIGLGQGIATVFERV
B2: egTER: NAD(P)H-dependent trans-2-enoyl-CoA reductase from Euglena gracilis (protein, UniProt Q5EU90 69-539, looked up)
Trans-2-enoyl-CoA reductase: VPQMAEGFSGEATSAWAAAGPQWAAPLVAAASSALALWWWAARRSVRRPLAALAELPTAVTHLAPPMAMFTTTAKVIQPKIRGFICTTTHPIGCEKRVQEEIAYARAHPPTSPGPKRVLVIGCSTGYGLSTRITAAFGYQAATLGVFLAGPPTKGRPAAAGWYNTVAFEKAALEAGLYARSLNGDAFDSTTKARTVEAIKRDLGTVDLVVYSIAAPKRTDPATGVLHKACLKPIGATYTNRTVNTDKAEVTDVSIEPASPEEIADTVKVMGGEDWELWIQALSEAGVLAEGAKTVAYSYIGPEMTWPVYWSGTIGEAKKDVEKAAKRITQQYGCPAYPVVAKALVTQASSAIPVVPLYICLLYRVMKEKGTHEGCIEQMVRLLTTKLYPENGAPIVDEAGRVRVDDWEMAEDVQQAVKDLWSQVSTANLKDISDFAGYQTEFLRLFGFGIDGVDYDQPVDVEADLPSAAQQ

Assays:
Format in all cases: biochemical
[1] = forward thiolase assay (biosynthetic direction), coupled with caHBD; details: substrate Acetyl-CoA; supernatant fraction; AtoB expressed from pCA24N, FadA from pUCBB-ntH6
Description: (§1) Cultures for enzymatic assays were grown overnight in 100 mL of LB media at 37° C. in 250 mL baffled flasks (Wheaton Industries, Inc., Millville, N.J.) in E. coli BL21 (DE3) cells induced with either 1 mM IPTG (pCA24N, pTrcHis2A) or 1 mM Arabinose (pUCBB-pBAD) at an OD600˜0.6, or expressed constitutively (pUCBB-ntH6). Reactions were monitored on either a Synergy HT plate reader (BioTek Instruments, Inc., Winooski, Vt.) at 25° C. (for reactions monitored at 300 nm or higher) or in a Biomate 5 Spectrophotometer (Thermo Scientific, Waltham, Mass.) for reactions at 263 nm. […]
(§2) For kinetic characterization, his-tagged proteins of AtoB, FadA, FadB, caHBD, egTER were purified from the B-PER supernatant fractions using Talon Metal Affinity Resin (Clontech Laboratories, Inc., Mountain View, Calif.) using gravity purification. […] Enzyme concentration was established by measuring the absorbance at […] and extinction coefficients predicted for each enzyme by the ProtParam program (web.expasy.org/protparam/).
(§3) For kinetic characterization, an appropriate amount of enzyme was established by checking linear range near predicted KM values. Then, the rates were measured for a range of substrates in order to establish kcat and KM. […]

[2] = thiolase activity in the reverse direction (loss of acetoacetyl-CoA at 303 nm); details: substrate Acetoacetyl-CoA; supernatant fraction; AtoB expressed from pCA24N, FadA from pUCBB-ntH6
Description: as §1, §2, §3

[3] = crotonyl-CoA reductase activity (loss of NADH absorbance); details: substrate Crotonyl-CoA; supernatant fraction; expressed from pTrcHis2A
Description: as §1, §2, §3

Molecule | Specific Activity [1] | Specific Activity [2] | Specific Activity [3]
B1 | Not detected^c | 0.013 ± 0.002^c μmol/mg/min | –
B2 | – | – | 5.4 ± 0.6^d μmol/mg/min
